Measured values published in patent US20240400657A1 (MorphoSys, published 2024).

T1: human C5aR_NT-bio peptide (human, biotin tag (position not given))
T1 construct: Chemically synthesized linear peptide (Genscript); also called human C5aR N-terminal peptide; human C5aR peptide
T1 peptide: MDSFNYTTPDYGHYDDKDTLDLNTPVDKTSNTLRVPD

T2: full length cynomolgus C5aR stably expressed on CHO Flp-In cells (cynomolgus monkey (Macaca fascicularis))
T2 chain: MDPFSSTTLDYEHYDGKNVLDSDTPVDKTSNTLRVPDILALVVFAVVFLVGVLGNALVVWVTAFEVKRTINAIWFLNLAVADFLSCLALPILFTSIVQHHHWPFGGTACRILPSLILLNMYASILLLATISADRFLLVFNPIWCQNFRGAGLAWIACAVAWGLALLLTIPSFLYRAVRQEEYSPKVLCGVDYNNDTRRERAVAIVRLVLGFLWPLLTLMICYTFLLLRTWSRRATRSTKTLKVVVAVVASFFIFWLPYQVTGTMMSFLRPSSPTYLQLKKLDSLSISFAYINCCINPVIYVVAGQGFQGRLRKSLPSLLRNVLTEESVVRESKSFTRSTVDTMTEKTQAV

T3: full length human C5aR stably expressed on CHO Flp-In cells (human, UniProt P21730 1-350)
T3 construct: also called human C5aR expressed on CHO cells
T3 sequence: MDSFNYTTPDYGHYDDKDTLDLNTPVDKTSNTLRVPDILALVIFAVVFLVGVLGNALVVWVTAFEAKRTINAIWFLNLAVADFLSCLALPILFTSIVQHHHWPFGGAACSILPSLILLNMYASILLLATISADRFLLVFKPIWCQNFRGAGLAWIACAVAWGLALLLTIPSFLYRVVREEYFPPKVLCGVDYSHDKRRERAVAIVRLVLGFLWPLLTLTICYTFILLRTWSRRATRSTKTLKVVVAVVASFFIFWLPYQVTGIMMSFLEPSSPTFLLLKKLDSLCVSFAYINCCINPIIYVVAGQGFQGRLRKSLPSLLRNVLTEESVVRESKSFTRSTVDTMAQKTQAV

T4: C5aR expressed on purified human neutrophils (human, UniProt P21730 1-350)
T4 sequence (looked up): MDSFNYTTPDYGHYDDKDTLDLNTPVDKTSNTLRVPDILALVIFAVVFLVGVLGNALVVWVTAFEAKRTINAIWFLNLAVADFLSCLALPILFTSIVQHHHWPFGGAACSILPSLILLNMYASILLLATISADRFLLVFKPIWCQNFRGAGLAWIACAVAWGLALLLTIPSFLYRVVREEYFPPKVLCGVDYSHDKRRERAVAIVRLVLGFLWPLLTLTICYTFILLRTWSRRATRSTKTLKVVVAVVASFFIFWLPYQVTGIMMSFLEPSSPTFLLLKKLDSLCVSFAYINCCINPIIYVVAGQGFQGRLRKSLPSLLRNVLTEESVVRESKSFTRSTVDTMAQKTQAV


Experiments:
[1] = biological target: T5, HIS6-mouse C5aR-HV1B1-GAG (mouse); assay: ELISA on coated VLPs, IgG titration
T5 construct: negative control; also called murine C5aR on VLPs; mouse C5aR expressed on virus-like-particles

[2] = biological target: T1, human C5aR_NT-bio peptide; assay: BLI (Octet), apparent (bivalent)
[3] = biological target: T6, Cynomolgus FcRn p51 [1-297]_AviHis/p14 biotinylated (cynomolgus monkey, UniProt Q8SPV9 24-298; Q6T672 21-119, biotinylated in vitro with BirA (Avi tag)); assay: BLI (Octet HTX), biotinylated FcRn on SA sensors, IgG titrated, steady state fit, apparent KD, pH 6.0; * deviation from fit model; pH 6.0
T6 construct: Heterodimer; UniProt Q8SPV9 (p51)
Source text: (§1) 0.5 nm of biotinylated human, cynomolgus, mouse and rat FcRn were captured on streptavidin (SA) sensors (FortéBIO, Pall Life Sciences). […] All sensorgrams were fitted using Data Analysis Software 10.0 (FortéBIO, Pall Life Sciences) to determine the apparent affinity and the data was fitted with a steady state model.

[4] = biological target: T6, Cynomolgus FcRn p51 [1-297]_AviHis/p14 …; assay: BLI (Octet HTX), biotinylated FcRn on SA sensors, IgG titrated, steady state fit, apparent KD, pH 6.0; * deviation from fit model
Source text: as §1

[5] = biological target: T2, full length cynomolgus C5aR stably …; assay: KinExA, MAB #1 as analyte, Flp-In CHO cells as titrant, apparent (bivalent) KD, n-curve analysis
Procedure: (§2) Apparent KD determination on C5aR-expressing cells was performed at RT with a KinExA® 3200 instrument (Sapidyne Instruments). PBS (Gibco), supplemented with BSA (1 mg/mL) and 0.02% (v/v) NaN₃ was used as assay buffer. […] After equilibration, the samples were centrifuged and the supernatants were used for analysis. […] The apparent KD was obtained using KinExA® software and by “n-curve analysis,” which fits all of the given curves to a single KD value simultaneously.

[6] = biological target: T3, full length human C5aR stably expressed …; assay: as above
Procedure: as §2

[7] = biological target: T2, full length cynomolgus C5aR stably …; assay: KinExA on Flp-In CHO cells
Procedure: as §2

[8] = biological target: T5, HIS6-mouse C5aR-HV1B1-GAG; assay: ELISA, coated VLPs expressing mC5aR, IgG titration, AttoPhos fluorescence
[9] = biological target: T4, C5aR expressed on purified human …; assay: cell-based or functional assay
[10] = biological target: T4, C5aR expressed on purified human …; assay: cell-based or functional assay; remark: listed apart in the source

Row | Binder | binding result [1] | fold weaker binding affinity compared to MAB #1 [2] [fold] | Kd [3] [nM] | Kd [4] [nM] | Kd [5] [nM] | Kd [6] [nM] | fold weaker binding than to full-length human C5aR [7] [fold] | binding result [8] | Inhibition of CD11b expression, granulocytes in whole blood, 15 nM C5a: IC50 [9] [nM] | Inhibition of CD11b expression, monocytes in whole blood, 15 nM C5a: IC50 [9] [nM] | CD11b assay, granulocytes, 15 nM C5a, 20 minutes of IgG incubation: IC50 [10] [nM] | CD11b assay, granulocytes, 15 nM C5a, 300 minutes of IgG incubation: IC50 [10] [nM] | CD11b assay, granulocytes: x-fold improvement (20 min. vs 300 min.) [10] [fold] | CD11b assay, monocytes, 15 nM C5a, 20 minutes of IgG incubation: IC50 [10] [nM] | CD11b assay, monocytes, 15 nM C5a, 300 minutes of IgG incubation: IC50 [10] [nM] | CD11b assay, monocytes: x-fold improvement (20 min. vs 300 min.) [10] [fold]
1 | MAB #2 (antibody, human IgG1, lambda, lambda 1 light chain) heavy: EVQLVESGGGLVKPGGSLRLSCAASGFTFSSYAMHWVRQAPGKGLEWVGRIKSVAQGGTTDYAAHVKGRFTISRDDSKNTLYLQMNSLKTEDTAVYYCARVSHSTFDVWGQGTLVTVSSASTKGPSVFPLAPSSKSTSGGTAALGCLVKDYFPEPVTVSWNSGALTSGVHTFPAVLQSSGLYSLSSVVTVPSSSLGTQTYICNVNHKPSNTKVDKRVEPKSCDKTHTCPPCPAPEAEGAPSVFLFPPKPKDTLMISRTPEVTCVVVDVSHEDPEVKFNWYVDGVEVHNAKTKPREEQYNSTYRVVSVLTVLHQDWLNGKEYKCKVSNKALPSSIEKTISKAKGQPREPQVYTLPPSREEMTKNQVSLTCLVKGFYPSDIAVEWESNGQPENNYKTTPPVLDSDGSFFLYSKLTVDKSRWQQGNVFSCSVMHEALHNHYTQKSLSLSPGK light: not shown | no binding | ~10 | 30 |  |  |  |  |  |  |  |  |  |  |  |  | 
2 | MAB #1 (antibody, human IgG1, lambda, lambda 1 light chain, VH3-15 framework) heavy: EVQLVESGGGLVKPGGSLRLSCAASGFTFSSYAMHWVRQAPGKGLEWVGRIKSKAQGGTTDYAAHVKGRFTISRDDSKNTLYLQMNSLKTEDTAVYYCARVSFSTFDVWGQGTLVTVSSASTKGPSVFPLAPSSKSTSGGTAALGCLVKDYFPEPVTVSWNSGALTSGVHTFPAVLQSSGLYSLSSVVTVPSSSLGTQTYICNVNHKPSNTKVDKRVEPKSCDKTHTCPPCPAPEAEGAPSVFLFPPKPKDTLMISRTPEVTCVVVDVSHEDPEVKFNWYVDGVEVHNAKTKPREEQYNSTYRVVSVLTVLHQDWLNGKEYKCKVSNKALPSSIEKTISKAKGQPREPQVYTLPPSREEMTKNQVSLTCLVKGFYPSDIAVEWESNGQPENNYKTTPPVLDSDGSFFLYSKLTVDKSRWQQGNVFSCSVMHEALHNHYTQKSLSLSPGK light: not shown |  |  |  | 6.8 | 2.98 | 0.13 | ~20 | no binding (tested: ~300 nM) | 9.8 | 4.2 | 11 | 2.3 | 4.8 | 4 | 0.7 | 5.7
